Source: patent US20160303245A1, “FATTY ACID DERIVATIVES OF DIMERIC INHIBITORS OF PSD-95” (UNIVERSITY OF COPENHAGEN, priority 2013, published 2016)

What was measured:
[1] = biological target: Human Serum Albumin (human), P02768; assay: Transil XL HSA binding kit (immobilized HSA), unbound compound by RP-HPLC
[2] = biological target: Human Serum Albumin (human), P02768; assay: calculated from KD(HSA) at 150 µM HSA (equation 2)

B1: FA-linked dimeric ligand 14 (peptide)
peptide: IETDV
modifications: not checked
Question: What does the source list for B1?
Answer: Kd [1]: 116 µM; fu (%), fraction unbound [2]: 43.6%

B2: FA-linked dimeric ligand 15 (peptide)
peptide: IETDV
modifications: not checked
Question: With B2 as the binder, how does the Kd [1] read?
Answer: 55 µM

Question: What about the fu (%), fraction unbound [2] of the same binder?
Answer: 26.8%
